Test results published in paper PMC3967714 (Cell reports, 2013).
Where no end group is shown, it is not given here.

T1: Dido3 PHD finger (Homo sapiens, UniProt Q9BTC0)
T1 sequence (Q9BTC0 266-325): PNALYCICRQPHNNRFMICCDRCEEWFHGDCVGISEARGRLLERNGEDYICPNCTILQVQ

T2: Dido3 PHD E289A (UniProt Q9BTC0-4 266-325, E289A)
T2 sequence: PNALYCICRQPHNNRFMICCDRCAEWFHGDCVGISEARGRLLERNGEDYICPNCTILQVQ

T3: Dido3 PHD D286A (UniProt Q9BTC0-4 266-325, D286A)
T3 sequence: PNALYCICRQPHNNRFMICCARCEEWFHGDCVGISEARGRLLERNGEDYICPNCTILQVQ

T4: Dido3 PHD H277A (UniProt Q9BTC0-4 266-325, H277A)
T4 sequence: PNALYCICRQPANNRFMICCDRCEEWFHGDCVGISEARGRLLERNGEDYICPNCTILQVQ


Experiments:
[1] = biological target: T1, Dido3 PHD finger; assay: 1H,15N HSQC NMR titration of 15N-labeled Dido3 PHD with histone peptides; assay type: binding; conditions: for chemical-shift changes in 1H,15N HSQC spectra: peptides aa 1–12 of H3 (H3K4me0: aa 1–19)
[2] = biological target: T1, Dido3 PHD finger; assay type: binding; conditions: wild-type Dido3 PHD, tryptophan fluorescence and NMR, peptides aa 1–12 of H3
[3] = biological target: T2, Dido3 PHD E289A; assay: other fluorescence titration + NMR titration
[4] = biological target: T3, Dido3 PHD D286A; assay: other fluorescence titration + NMR titration
[5] = biological target: T4, Dido3 PHD H277A; assay: other fluorescence titration + NMR titration

exchange regime on the NMR timescale ([1]; peptide aa 1–12 of H3) | weaker binding relative to H3K4me3 [2] [fold] | fold decrease of binding against the wild type [3] [fold] | fold decrease of binding against the wild type [4] [fold] | binding result [5] | Molecule | chemical-shift changes in 1H,15N HSQC spectra [1]
intermediate exchange regime | 85 | – | – | – | H3K4me1: H3K4me1 peptide (aa 1–12 of H3) | very similar pattern of chemical-shift changes
– | 6 | – | – | – | H3K4me2: H3K4me2 peptide (aa 1–12 of H3) | very similar pattern of chemical-shift changes
– | – | ~4 | ~200 | binds | ARTK(Me3)QTARKSTG (peptide, UniProt P68431 2-13, looked up) [H3K4me3 peptide (aa 1-12 of H3)] | –
